# Test results reported in US20200079833A1 (AstraZeneca / MedImmune, published 2020).
# Starred links: 1 amine or outer side, 2 acyl side, 3 side chain; linkers in the order of their positions; H or OH if unused. Non-standard residues stand in square brackets, D forms with d. Groups on a side chain read outwards from the residue. Primed or numbered codes have the meaning given here. No end group written: not given here. *: point of attachment. γGlu = O=C(O)[C@H](CCC(=O)[*:2])N[*:1]; Stearoyl = CCCCCCCCCCCCCCCCCC(=O)*; αMeF = C[C@](N)(Cc1ccccc1)C(=O)O; αMeK = C[C@](N)(CCCCN)C(=O)O; αMeS = C[C@](N)(CO)C(=O)O; PEG2′ = not defined here; Aib = CC(C)(N)C(=O)O
# T1: glucose-dependent insulinotropic peptide (gastric inhibitory polypeptide) receptor (GIPR) (human, UniProt P48546 22-466)
# T1 sequence (looked up): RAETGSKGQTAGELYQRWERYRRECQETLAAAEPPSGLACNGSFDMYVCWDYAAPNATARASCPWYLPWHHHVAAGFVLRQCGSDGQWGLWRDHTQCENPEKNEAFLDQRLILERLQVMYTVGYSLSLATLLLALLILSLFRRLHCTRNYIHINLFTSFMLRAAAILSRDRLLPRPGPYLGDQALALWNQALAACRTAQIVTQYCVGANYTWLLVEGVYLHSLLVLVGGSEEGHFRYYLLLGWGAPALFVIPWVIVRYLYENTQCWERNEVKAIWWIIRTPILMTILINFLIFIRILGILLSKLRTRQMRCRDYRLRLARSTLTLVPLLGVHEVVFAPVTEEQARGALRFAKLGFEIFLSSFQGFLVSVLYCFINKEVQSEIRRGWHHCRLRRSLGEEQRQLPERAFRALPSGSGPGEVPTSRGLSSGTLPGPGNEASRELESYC
# Experiments:
# Assay in all cases: cell-based or functional assay
# GLP-1 receptor (GLP-1R) = GLP-1 receptor (GLP-1R) (human, UniProt P43220 24-463)
# [1] = molecular target: T1, glucose-dependent insulinotropic …
# glucagon receptor (GCGR) = glucagon receptor (GCGR) (human, UniProt P47871 26-477)
# Chain of glucagon receptor (GCGR) (P47871 26-477): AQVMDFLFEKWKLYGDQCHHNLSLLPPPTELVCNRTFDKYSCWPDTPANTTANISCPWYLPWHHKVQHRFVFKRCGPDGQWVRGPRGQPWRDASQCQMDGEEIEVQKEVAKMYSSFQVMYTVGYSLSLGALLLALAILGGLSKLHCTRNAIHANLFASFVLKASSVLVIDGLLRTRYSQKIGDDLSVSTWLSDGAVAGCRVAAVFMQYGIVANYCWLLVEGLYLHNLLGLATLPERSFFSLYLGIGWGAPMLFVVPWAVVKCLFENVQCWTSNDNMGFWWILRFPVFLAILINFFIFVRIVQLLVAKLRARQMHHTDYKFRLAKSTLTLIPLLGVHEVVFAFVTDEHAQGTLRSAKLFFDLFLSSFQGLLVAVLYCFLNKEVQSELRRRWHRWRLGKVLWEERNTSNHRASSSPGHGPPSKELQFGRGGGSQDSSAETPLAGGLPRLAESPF
"Primary assay EC50 (cAMP), GLP-1R n1 (GLP-1 receptor (GLP-1R))","Primary assay EC50 (cAMP), GLP-1R n2 (GLP-1 receptor (GLP-1R))","Primary assay EC50 (cAMP), Mean pM GLP-1R (GLP-1 receptor (GLP-1R))","Primary assay EC50 (cAMP), GIP-R, first run [1]","Primary assay EC50 (cAMP), GIP-R, second run [1]","Primary assay EC50 (cAMP), Gluc-R, first run (glucagon receptor (GCGR))","Primary assay EC50 (cAMP), Gluc-R, second run (glucagon receptor (GCGR))",Binder
0.17 nM,0.06 nM,114 pM,27 nM,27 nM,27 nM,27 nM,H[Aib]EGS[αMeF]TSDV[αMeS]S[αMeF]LEGEAA[αMeK]E[αMeF]IA[αMeF]VVK([γGlu-γGlu-Stearoyl])GG-NH2 (N-terminus assumed; SMILES CCCCCCCCCCCCCCCCCC(=O)N[C@@H](CCC(=O)N[C@@H](CCC(=O)NCCCC[C@H](NC(=O)[C@@H](NC(=O)[C@@H](NC(=O)[C@](C)(Cc1ccccc1)NC(=O)[C@H](C)NC(=O)[C@@H](NC(=O)[C@](C)(Cc1ccccc1)NC(=O)[C@H](CCC(=O)O)NC(=O)[C@](C)(CCCCN)NC(=O)[C@H](C)NC(=O)[C@H](C)NC(=O)[C@H](CCC(=O)O)NC(=O)CNC(=O)[C@H](CCC(=O)O)NC(=O)[C@H](CC(C)C)NC(=O)[C@](C)(Cc1ccccc1)NC(=O)[C@H](CO)NC(=O)[C@](C)(CO)NC(=O)[C@@H](NC(=O)[C@H](CC(=O)O)NC(=O)[C@H](CO)NC(=O)[C@@H](NC(=O)[C@](C)(Cc1ccccc1)NC(=O)[C@H](CO)NC(=O)CNC(=O)[C@H](CCC(=O)O)NC(=O)C(C)(C)NC(=O)[C@@H](N)Cc1c[nH]cn1)[C@@H](C)O)C(C)C)[C@@H](C)CC)C(C)C)C(C)C)C(=O)NCC(=O)NCC(N)=O)C(=O)O)C(=O)O) [SEQ ID NO 192]
0.25 nM,0.11 nM,182 pM,28 nM,28 nM,28 nM,28 nM,H[Aib]EGS[αMeF]TSDV[αMeS]S[αMeF]LEGEAA[αMeK]E[αMeF]IA[αMeF]VVK([γGlu-Stearoyl])GG-NH2 (N-terminus assumed; SMILES CCCCCCCCCCCCCCCCCC(=O)N[C@@H](CCC(=O)NCCCC[C@H](NC(=O)[C@@H](NC(=O)[C@@H](NC(=O)[C@](C)(Cc1ccccc1)NC(=O)[C@H](C)NC(=O)[C@@H](NC(=O)[C@](C)(Cc1ccccc1)NC(=O)[C@H](CCC(=O)O)NC(=O)[C@](C)(CCCCN)NC(=O)[C@H](C)NC(=O)[C@H](C)NC(=O)[C@H](CCC(=O)O)NC(=O)CNC(=O)[C@H](CCC(=O)O)NC(=O)[C@H](CC(C)C)NC(=O)[C@](C)(Cc1ccccc1)NC(=O)[C@H](CO)NC(=O)[C@](C)(CO)NC(=O)[C@@H](NC(=O)[C@H](CC(=O)O)NC(=O)[C@H](CO)NC(=O)[C@@H](NC(=O)[C@](C)(Cc1ccccc1)NC(=O)[C@H](CO)NC(=O)CNC(=O)[C@H](CCC(=O)O)NC(=O)C(C)(C)NC(=O)[C@@H](N)Cc1c[nH]cn1)[C@@H](C)O)C(C)C)[C@@H](C)CC)C(C)C)C(C)C)C(=O)NCC(=O)NCC(N)=O)C(=O)O) [SEQ ID NO 191]
0.0097 nM,0.0047 nM,7.2 pM,26 nM,26 nM,26 nM,26 nM,H[Aib]EGS[αMeF]TSDV[αMeS]S[αMeF]LEGEAA[αMeK]E[αMeF]IA[αMeF]VVK([PEG2′-PEG2′-PEG2′-Stearoyl])GG-NH2 [SEQ ID NO 190]
